Like-named read-outs stand apart in the source and are kept apart here. Values belong to the substance of their own block, whether it stands above or below them. Ends that are not written are not given here.
Tests used:
human IgG Fc region = target: T1, human IgG Fc region (Homo sapiens, UniProt P01857); test: SPR binding affinity analysis on immobilized Fc region prepared by papain digestion of human monoclonal IgG
T1 construct: The Fc region was prepared by the papain digestion of a human monoclonal antibody IgG
Experimental: The Fc region was prepared by the papain digestion of a human monoclonal antibody IgG (Chugai Pharmaceutical Co., Ltd.) according to the instruction manual attached to Pierce® Fab Preparation Kit (Thermo Fisher Scientific Inc. Pierce) followed by purification by affinity chromatography using MabSelect SuRe (GE Healthcare Japan Corp.), HiTrap DEAE anion-exchange chromatography (GE Healthcare Japan Corp.), and gel filtration chromatography using Superdex 200 (GE Healthcare Japan Corp.).
The Fc region prepared in the section 1) of Example 2 was immobilized onto a sensor chip CM5 (GE Healthcare Japan Corp.) by the amine coupling method.
Subsequently, an example of binding affinity analysis by the surface plasmon resonance method is shown as to the functions of the thioredoxin fusion proteins with the prepared polypeptides. The analysis apparatus used was Biacore T100 (GE Healthcare Japan Corp.). […] The data was processed with Biacore T100 Evaluation Software (GE Healthcare Japan Corp.).
The assay employed Biacore T100 (GE Healthcare Japan Corp.).
Subsequently, the prepared 5 types of polypeptides were analyzed for their binding affinity by surface plasmon resonance. The assay employed Biacore T100 (GE Healthcare Japan Corp.).

[1] = tested on: human Fc region manufactured by Jackson ImmunoResearch Laboratories, Inc.; test: SPR binding affinity analysis, peptide as analyte on immobilized human Fc region (Jackson ImmunoResearch)
Text: A human Fc region manufactured by Jackson ImmunoResearch Laboratories, Inc. was immobilized onto a sensor chip CM5 (GE Healthcare Japan Corp.) by the amine coupling method using Amine Coupling Kit (GE Healthcare Japan Corp.).

[2] = alanine variants of p17_2, Fc region immobilized on CM5, read-out: KD (nM), binding dissociation constant of p17_2 variant
[3] = analyte on Fc region immobilized on CM5, HBS-T, 25° C., read-out: equilibrium dissociation constant KD

Substance: DAAWHLGELVWAT [FcIII-Ala peptide, reference compound]
Kd (human IgG Fc region; Fc region immobilized on CM5, 0.78-100 μM peptide, read-out: equilibrium dissociation constant KD by Scatchard plot using equilibrium value): 42000 nM

Substance: DAAWHLGELVWATYYDPETGTWLPDWQTMAQK [pep21 peptide]
improvement in affinity compared with FcIII-Ala peptide (human IgG Fc region): approximately 420 fold

Substance: DAAWHLGELVWATYYDPETGTWQPDWLYMTTR [pep14 peptide]
Kd (human IgG Fc region; [3]): 120 nM

Substance: p17_W48A: alanine variant of p17_2 polypeptide, SEQ ID NO: 62 (GPGISAFSPGRGVYDPETGTWYDAAWHLGELVWATYYDPETGTWEPDAQRMLGQ; Selected sequence, p17_W48A)
Kd (human IgG Fc region; [2]): 200 nM

Substance: p17_P46A: alanine variant of p17_2 polypeptide, SEQ ID NO: 60 (GPGISAFSPGRGVYDPETGTWYDAAWHLGELVWATYYDPETGTWEADWQRMLGQ; Selected sequence, p17_P46A)
Kd (human IgG Fc region; [2]): 5.6 nM

Substance: p17_R50A: alanine variant of p17_2 polypeptide, SEQ ID NO: 63 (GPGISAFSPGRGVYDPETGTWYDAAWHLGELVWATYYDPETGTWEPDWQAMLGQ; Selected sequence, p17_R50A)
Kd (human IgG Fc region; [2]): 7.8 nM

Now from value to substance:

Kd (human IgG Fc region; [2]): 45 nM
Substance: p17_D47A: alanine variant of p17_2 polypeptide, SEQ ID NO: 61 (GPGISAFSPGRGVYDPETGTWYDAAWHLGELVWATYYDPETGTWEPAWQRMLGQ; Selected sequence, p17_D47A)

binding affinity relative to that of the 2A1 peptide ([1]; chignolin variant region replaced with glycine-rich linker): 1/1000
Kd ([1]; peptide analyte, Fc immobilized on sensor chip CM5, HBS-T pH 7.4, 25° C., read-out: equilibrium dissociation constant KD): 23 µM
Substance: GVVRQWSGGGGSGGGGRSSIAYGGG [2A1Gly peptide, 2A1 peptide with the chignolin variant region replaced by a glycine-rich linker]

improvement in affinity compared with FcIII-Ala peptide (human IgG Fc region): approximately 26000 fold
improvement in binding affinity compared with pep24 peptide (human IgG Fc region): 138 fold
Kd (human IgG Fc region; [3]): 1.6 nM
Substance: p17_2: SEQ ID NO: 47; 54 residues, p17 with Gly, Pro, Gly at the N terminus, from protease cleavage of thioredoxin fusion (GPGISAFSPGRGVYDPETGTWYDAAWHLGELVWATYYDPETGTWEPDWQRMLGQ; Selected sequence, p17_2)

From US9897611B2, “Molecule library constructed on the basis of backbone structure of microprotein” (NATIONAL INSTITUTE OF ADVANCED INDUSTRIAL SCIENCE AND …, priority 2012, dated 2018)
